The DeepSol protein solubility set

Test: soluble on expression in E. coli; label from the status in PepcDB or PDB records

Row | Sequence | soluble on expression in E. coli
1 | MIVLETERLNLRWFDIKDAPFILELVNDPAWIQFIGDKGVRNLEDAKNYIVNGPIDMYNKLRFGLYLVERKEDLTPLGMCGLIKRDSLEDVDIGFAFLETFRSKGYGYESASAIIEYGVQKLGMKRIVAITSIDNIASGKLLEKVGLRFEKIISDSGEDLKLFGYNA | not soluble
2 | MIVRTLLDTDLYKFTTSYAYIKLFPYAMGTFSFNDRNETEYTEEFLEALKSEFNKLSRLRLTEEELEYMTRNCRFLPRVYWEWLSSFRFDPDKIDIHLDTTGRLHIEVSDFLYKVTLYEVPLLAIVSEIKNKFFGNVPDMSEILCKLSEKVELSNQHQLRFSEFGTRRRFSIDVQETVIKRLNDTAKYCTGTSNCYFAMKYGMKMMGTHPHEWFMFHGAQFGYKHANYMALENWVNVYDGDLGIALSDTYTSGIFLSNLSRKQAKLFDGVRCDSGNEFDFIDKLVARYKELGIDATTKTIVFSNALDFTKALEIQEYCKDKIRCSFGIGTNLTNDTGFAPSNIVMKLTQCKMNVNQEWRECIKLSDDEGKHTGSPEEVQACLYELRLAKLEHHHHHH | soluble
3 | MIVVKVGGAEGINYEAVAKDAASLWKEGVKLLLVHGGSAETNKVAEALGHPPRFLTHPGGQVSRLTDRKTLEIFEMVYCGLVNKRLVELLQKEGANAIGLSGLDGRLFVGRRKTAVKYVENGKVKVHRGDYTGTVEEVNKALLDLLLQAGYLPVLTPPALSYENEAINTDGDQIAALLATLYGAEALVYLSNVPGLLARYPDEASLVREIPVERIEDPEYLALAQGRMKRKVMGAVEAVKGGVKRVVFADGRVENPIRRALSGEGTVVR | soluble
4 | MIYKSIAERLRIRLNSADFTLNSLLPGEKKLAEEFAVSRMTIRKAIDLLVAWGLVVRRHGSGTYLVRKDVLHQTASLTGLVEVLKRQGKTVTSQVLIFEIMPAPPAIASQLRIQINEQIYFSRRVRFVEGKPLMLEDSYMPVKLFRNLSLQHLEGSKFEYIEQECGILIGGNYESLTPVLADRLLARQMKVAEHTPLLRITSLSYSESGEFLNYSVMFRNASEYQVEYHLRRLHPEKS | soluble
5 | MKAAAREEAKNIKLLETTEEDKQKNFLFLRLWDRNMDIAMGWKGAQAMQFGQPLVFDMAYENYMKRKELQNTVSQLLESEGWNRRNVDPFHIYFCNLKIDGALHRELVKRYQEKWDKLLLTSTEKSHVDLFPKDSIIYLTADSPNVMTTFRHDKVYVIGSFVDKSMQPGTSLAKAKRLNLATECLPLDKYLQWEIGNKNLTLDQMIRILLCLKNNGNWQEALQFVPKRKHTGFLEISQHSQEFINRLKKAKT | not soluble
6 | MKAARQQAIVDLLINHKSLTTEALATRLNVSKETIRRDLSELQTQGKVLRNHGRAKYIHRENQDSGDPFHIRLKSHYAHKADIAREALAWIEEGMTIALDASSTCWYLARQLPDIPIQVFTNSHPICQELGKRERIALISSGGQLERKYGCYVNPSLISQLKSLDIDLFIFSCEGIDSGGDLWDSNAINADFKSILLRRASQSLLLIDKSKFNRSGEARIGHLDDVTHIVSDAPQSLEHHHHHH | soluble
7 | MKALLPGLYLLPVPIPYPLKTVNLYLLQGAGEVALVDTALGTRAARGALELHLAELGLCFQDVKTILLTHHHPDHYGLSGFFEGLGARVFLHEEEFARGHRFWREPEAFAEASWRLFLDHGTPEGALQGIRETVEKTRERVHPPQNPLPLRDGEALEVAGKRLRVLWTPGHADGHAAFYLEEEGVLLAGDALLEKVSPNVGLWAYTRENPLKDFLRSLDRLADLGARVAYAGHFGPIADVRQRAEELKAHHQARLEALLALLDGPKTAWELSLHLFPQELDPAGRRFAFAETLAHLEYLREEGAVGRGGPPYRYFRR | soluble
8 | MKALLSIEMDMQVPFHDVDSMGITWHGNYLRYFEVARCKLLDELGYNYRQMRASNYAWPIIDVQIKYVKPSTFEQHITVRAELVEWENRLKINYQIRDTATGERITKGYTIQAAVDMTSLEHHHHHH | not soluble
9 | MKALRGMISEKGGWNLTVNNDNNTVVSSGGALDLSSGSKNLKIVKDGKKNNVTFDVARDLTLKSIKLDGVTLNETGLFIANGPQITASGINAGSQKITGVAEGTDANDAVNFGQLKKIETEVKEQVAASGFVKQDSDTKYLTIGKDTDGDTINIANNKSDKRT | soluble
10 | MKAMNKVWVIGDASVDLVPEKQNSYLKCPGGASANVGVCVARLGGECGFIGCLGDDDAGRFLRQVFQDNGVDVTFLRLDADLTSAVLIVNLTADGERSFTYLVHPGADTYVSPQDLPPFRQYEWFYFSSIGLTDRPAREACLEGARRMREAGGYVLFDVNLRSKMWGNTDEIPELIARSAALASICKVSADELCQLSGASHWQDARYYLRDLGCDTTIISLGADGALLITAEGEFHFPAPRVDVVDTTGAGDAFVGGLLFTLSRANCWDHALLAEAISNANACGAMAVTAKGAMTALPFPDQLNTFLSSHSLAQAMTVK | not soluble
11 | MKASIKGKYDTDKTSGIGSLAFNAGDIKLRATMTDATLVAGPTLTGLALAVEKPGSFIVEYNVPKKDVRFQFMNTVRIAEKPLNLTYIHSRADNRTIVDGSLVIDSANKLSANHMVGTNNCKIKYTYAHGGLATFEPCYDLAKNTWDFAVSRRFYSGDNVRATYQTSSKLLGMEWSRNNKASGFKVCASVNLADELKTPKLTAETTWNLEM | soluble
12 | MKAWEIARKPRVVVYPGDPLTYVRAMMRREEEPIAVVVVESEKSEKVVGYITWNEVIQVTSHYSHLRAKDAMLDYPVAFKDDDIGDVYKRMVEEKVYAIPVLESRDNPNLVGVVTVADIVRALRRAGFK | not soluble
13 | MKAYIQVKQVGKRKCSIEKMPIDFPTPPASVQELIEAVVCWQVKEYNERLQQSEMLKYLTCEEMEDKAAAGKVGFEANYNGRPAVETEAIINALQSYEDGIFRIFLDDAELGELSSSVQLKEESTLTFIRLAMLSGRLW | not soluble
14 | MKAYRIHVQGIVQAVGFRPFVYRIAHAHNLKGFVRNLGDAGVEIVIEGNEEDIEGFLVDLYKKKPPIARIDKVEKEEIPPQGFDRFYIEKSSTEKKGEGDSIIPPDIAICDDCLKELFDPTNKRYMYPFIVCTNCGPRFTIIEDLPYDRENTAMREFPMCEFCRSEYEDPLNRRYHAEPVACPTCGPSYRLYTNDGNEIVGDPLRKAAKLIDKGYIVAIKGIGGIHLACDATREDVVVELRKRIFRPQKPFAIMAKDLETIRTFAYVSPEEEEELTSYRRPIVALKKKEPFPLPENLAPGLHTIGVMLPYAGTHYILFHWSETPVYVMTSANFPGMPMIKDNEEAFEKLRDVADYLLLHNRRIPNRADDSVVRFVDGRRAVIRRSRGFVPLGIEIPFEYKGLAVGAGLMNAFGVSKSGKVYPSQYIGDTSKIEVLEFMRDAIRHFFKILRIDSLDLVVADLHPSYNTTKLGMEIAEEFGAEFLQVQHHYAHVASVMAEHNLEEVVGIALDGVGYGTDGKTWGGEVIYLGYEDVERLAHIEYYPLPGGDLASYYPLRALIGILSLNHDFEEVEKIIREFCPNAIKSLKYGETEFKVILRQLSSGINVAYASSTGRVLDAFSVLLNVSYRRHYEGEPAMKLESFAYQGKNDLNLTVPIEGEEIKVSELFEEVLELMGKVNPRDIAYSVHLALARAFAEVSVEKAKEFGVKTVVLGGGVGYNELIVKTIRKIVEGRELRFLTTYEVPRGDNGINVGQAFLGGLYLEGYLNREDLSI | soluble
15 | MKCKFCSREAYIKIHYPKMYLCEEHFKEYFERKVSRTIERYKLLTKDERILVAVSGGKDSAVTAYVLKKLGYNIECLHINLGISGYSEKSEEYAKKQCKLIGAPLHIVRIKEILGYGIGEVKTRRPPCSYCGLTKRYIMNKFAYDNGFDAIATGHNLDDEASFLLNNILHWNTEYLAKGGPILPQQGKFIKKVKPLYEVTEREVVAYALAVGLEYIVEECPYARGATTLDMKGVLNELEEKRPGTKFNFVRGYLKKKKLFEPEIKEKEIKECKICRMPSSGDICAFCKFWGLKKEINFKVSSTDEEPFGP | soluble
16 | MKDAKGIDKQWVILNELASKISKVRPLPEDVYSKLRIANNIITYYLLDEHADFEVLRDAEKEISKIQVILFGLADQDVSKEYLIKMGQALRNEIDLEFPLKQTAFNTEVKRKKGSETIRIKMPVEVQIEVLGELSEHNGVIFELSQDDEQKILVEGVKERITSALKDFSVIWKFQDNLEHHHHHH | not soluble
17 | MKDAQLNTLCQRHQAVLINSASNSITVAVVDAPSHALLDALHFATQKQIDIVCWTRQQMENHRHKPDQAPSANAAKGGETAAQLLNQTLRSAMAKRASDIHLEPGASRYRIRLRIDGVLHILQDIAKETGLALTARLKVLGNLDIAEHRLPQDGQFTVDLAGDSISFRIATLPCKEGEKVVLRLLHQVEQTLDLDTLGMYGAQLTAFRQALQQPQGLVLVTGPTGSGKTVTLYSALQTRNTPGINLCSVEDPIEIPLDGINQTQIHPRAGLTFQNVLRALLRQDPDIIMVGEIRDGDTAEIAIKAAQTGHLVLSTLHTNSTSETLIRLQQMGVARWMISSALTLVVAQRLVRKLCPHCKQRLSDPVVLSPNLWPSAIPRWQASGCQHCYHGFYGRTALFEVLTVTPALRQLIASGASAQALEAHLQQTGTGTLFENGCRAVEQGMTSFEEILCVLGMPHER | not soluble
18 | MKEETFYLVREDVLPDAMRKTLEVKKLLDRKKADSVADAVQKVDLSRSAFYKYRDAVFPFYTMVKEQIITLFFHLEDRSGALSQLLQAVADSGSNVLSIHQTIPLQGRANVTLSISTSAMEEDIHTLMNKLRKFDFVEKVEILGSGA | not soluble
19 | MKEIWYVRHGETEWNAQRRFQGHLDIPLSPVGIGQAFRLAERLSRSRISFDRLYASDLRRARQTAEPLAQVLGLPIATTPLLREIHVGELAGLTRAEAEARFPSFLAEAAEDPWNARRPGGESMADLARRLQAFLEEVPPGRHLVVTHGGVIRAALKLALDLAGDTWRRFHIQNTSITRILYPENAVLTVADAAHLEVWADWLSDEDLKG | soluble
20 | MKELDKIDFRILKILQQNARIPMTELAEKVGLSTTPVTERVRRLEREHYISGYHAHLNPHLLGKPLLVFVELKLQSKSGNIFEDFKKEVLKIPQIMECHLVSGEYDYLIKVRLPDMSAYRDMLGNILLQLPAASESRSYVVMEEVKENPVLDLD | soluble
21 | MKELKQAEQIRTWVQSILTDESSGHDWHHVSRVADLAAYIGEKEKADLFIVETAALVHDLIDVKLPDTVRLSVSEVYDQLVFFGVGKENADRVIHIITRMSFRDRGKLAKEPLSIEGKAVQDADRLDAIGAVGIARAFMFAGAKGHGLYGDEQSAYAHFFHKLLRLKDMMNTDTARELAEERHNFMLQFVRQLEKDIPGIDAETS | not soluble
22 | MKEVKVGIGDYAVGKGNGIISTYGLGSCVGITLYDRVTKVGGLLHALLPEAARYGHRGNPAKYVDTGLQLLLKEVIKLGASKFRLEAKLFGGAQMFDNIRSEELKIGEKNVQVAKRELRKLGIRLVAEDTGGKGGRTIYLDLSTGKVRMRKVTEGKVIEKVY | soluble
23 | MKEYLKEVLDVSGEKFFILNPMIPNMDSNKPNFIIGKKSLIYTGKFAKDWNSDEILEAFAKIVRTNPDFRLIVAGDKFNLHPENPNFKEEVTQKLKTYKNVDWVGGVTREEVQKLIQQSDIGIGWRNNSLNDSLELSTKALEYGALGKPVILNRTPMHERLFGSEYPFYANSEEEFISCITQSLTNDDIYASAAETVYKVCTDFTFAKTYERISPFLWEAKDKRIRLVFAGHDLKFAKMFIDRFASRTRYEVEIDQWKGHSVNDESHSTNCLNWADVIFCEWGLGNAVWYSHRVRQGQTLIVRMHLQERETKHYLKFNYDAIDSIIAISPYIRDEFVNNCGIPSDNMVMIYNAVNCKKFDLEKYEDTQFNLGITGICPSRKRLDRAIDIFEKLKEKDSRYTLHIKGQLPTHYPWLWKKEEEKKYYEQVFKRINSSKWRDSIIFDGFGNDMDTWFQKIGYILSTSDFESFHLAPAEGMASGAFPIIIRWEGCHTIYDEDFIFENVDEAATFILKRNQVMGPNDIDVRTYVRNRFDIEKIFGDWEELIARLR | not soluble
